The record followed here is the Human Domainome abundance scans (Beltran et al. 2025).

B1: Peroxisome proliferator-activated receptor delta, residues 71 to 145; numbered along this chain, Q03181 (parent)
chain: NMECRVCGDKASGFHYGVHACEGCKGFFRRTIRMKLEYEKCERSCKIQKKNRNKCQYCRFQKCLALGMSHNAIRF

± gives the uncertainty stated by the source.

In the data set the parent is B1. The data set can be described thus: abundance fitness (aPCA) (normalised: wild type 0, dead -1); higher = more abundant; growth selection in yeast, the domain comes from the species named. To be noted: Homo sapiens.
For RMECRVCGDKASGFHYGVHACEGCKGFFRRTIRMKLEYEKCERSCKIQKKNRNKCQYCRFQKCLALGMSHNAIRF, the abundance fitness is -0.296 ± 0.064. As for NMECRVCGDKASGFHYGVHACEGCKGFFRRTIRMKLEYEKCERSCKIQKKNRNKCQYCRFQKCLALGMYHNAIRF, the abundance fitness is -0.213 ± 0.095.

Turning to NMECRVCGDKASGFHYGVHACEGCKGFFRRTIRMKLEYEKCERSCKIQKKNRNKCFYCRFQKCLALGMSHNAIRF, the abundance fitness is -0.079 ± 0.096. NMECRVCGDKASGFHYGVHACEGCKGFFRRTTRMKLEYEKCERSCKIQKKNRNKCQYCRFQKCLALGMSHNAIRF: the abundance fitness was -0.107 ± 0.054. For NMECRVCGDKASGFHYGVHACEGCKGFFRRTSRMKLEYEKCERSCKIQKKNRNKCQYCRFQKCLALGMSHNAIRF, the abundance fitness is -0.464 ± 0.067. For NMECRVCGDKASGFHYGVHACEGCKGFFRRTRRMKLEYEKCERSCKIQKKNRNKCQYCRFQKCLALGMSHNAIRF, the abundance fitness is -0.514 ± 0.068.

For the variant NMECRVCGDKASGFHYGVHACEGCKGFFRRTIRMKLEYEKCERSCKIQKKNRNKCQYCRFQKCLNLGMSHNAIRF, the abundance fitness was -0.026 ± 0.064. NMECRVCGDKASGFHYGVHACEGCKGFFRRTIRMKLEYEKCERSCKIQKKNRNKCQYCRFQKCLALGSSHNAIRF: the abundance fitness is -0.746 ± 0.1. For NMECRVCGDKASGFHYGVHACEGCKGFFRRTIRMKREYEKCERSCKIQKKNRNKCQYCRFQKCLALGMSHNAIRF the value was -0.26 ± 0.04.

Regarding NMECRVCGDKASGFHYGVHACEGCKGFFRRTIRMKLEYEKCERSCKIQKKNRNKCQYCRAQKCLALGMSHNAIRF, the abundance fitness is -0.941 ± 0.14. For NMECRVCGDKASGFHYGVHACEGCKGFFRRTIRDKLEYEKCERSCKIQKKNRNKCQYCRFQKCLALGMSHNAIRF the value was 0.192 ± 0.054; for NMECRVCGDKASGFHYGVHACEGCKGFFRRTIRKKLEYEKCERSCKIQKKNRNKCQYCRFQKCLALGMSHNAIRF, -0.074 ± 0.06. For NMECRVCGDKASGFHYGIHACEGCKGFFRRTIRMKLEYEKCERSCKIQKKNRNKCQYCRFQKCLALGMSHNAIRF the value was -0.051 ± 0.074; for NMECNVCGDKASGFHYGVHACEGCKGFFRRTIRMKLEYEKCERSCKIQKKNRNKCQYCRFQKCLALGMSHNAIRF, 0.089 ± 0.064; for NMECRVCGDKASGFHYGVHACEGCKGFFRRTIRMKLEYEKCGRSCKIQKKNRNKCQYCRFQKCLALGMSHNAIRF, -0.135 ± 0.028. For NMECRVCGDKASGFHYGVHACEGCKGFFRRTIRMKLEYEKCLRSCKIQKKNRNKCQYCRFQKCLALGMSHNAIRF the value was -0.195 ± 0.04. On to NMECRWCGDKASGFHYGVHACEGCKGFFRRTIRMKLEYEKCERSCKIQKKNRNKCQYCRFQKCLALGMSHNAIRF, for which the abundance fitness is -0.934 ± 0.14. For NMECRVCGDKDSGFHYGVHACEGCKGFFRRTIRMKLEYEKCERSCKIQKKNRNKCQYCRFQKCLALGMSHNAIRF the value was -0.237 ± 0.077. For NMECRVCGDKASGFHYGVHACEGCKGFFRRTIRMKLEYEKCERGCKIQKKNRNKCQYCRFQKCLALGMSHNAIRF the value was 0.055 ± 0.03; for NMECRVCGDKASGFHYGVHACEGCKGFFRRTIRMKLEYEKCERVCKIQKKNRNKCQYCRFQKCLALGMSHNAIRF, -0.086 ± 0.039. For the variant NMECRVCGDKASGCHYGVHACEGCKGFFRRTIRMKLEYEKCERSCKIQKKNRNKCQYCRFQKCLALGMSHNAIRF, the abundance fitness was -0.076 ± 0.059. For NMECRVCGDKASGFHYGVHACEGCKGFFRRTIRMKLEYEKCERSCKIQKKNRNKCQYCRFQKCLALGMSHNAYRF the value was -0.097 ± 0.072; for NMECRVCGDKASGFHYGVHACEGCKGFFRRTIRMKLEYEKCERSCKIQKKNRNKCQYCRFQKCLALGMSHNALRF, 0.087 ± 0.037. For NMECRVCGDKASGFHYGVHACEGCKGFFRRTIRMKLEYESCERSCKIQKKNRNKCQYCRFQKCLALGMSHNAIRF the value was -0.255 ± 0.051; for NMECRVCGDKASGFHYGVHACEGCKGFFRRTIRMKLEYELCERSCKIQKKNRNKCQYCRFQKCLALGMSHNAIRF, -0.077 ± 0.037. For NMECRVCGDKASGFHYGVHACEGCKGFFRRTIRMKLEYEKCEHSCKIQKKNRNKCQYCRFQKCLALGMSHNAIRF the value was -0.07 ± 0.086. Consider NMECRVCGDKASGFHYGVHACEGCKGFFRRTIRMKLEYEKCERSCKIQKKNRNKCQYCRFQKCLALGMSSNAIRF, for which the abundance fitness amounted to 0.015 ± 0.067.

NMECRVCGDKASGFHYGVHACEGCKGFFRRTIRMKLEYEKCERSCKIQKKNRNKCQYCRFQKCLALGMSHNGIRF: the abundance fitness stood at 0.059 ± 0.03. As for NMECRVCGDKASGFHYGVHACEGCKGFFRRTIRMKLEYEKCERSCKIQKKNRNKCQYCRFQKCLALGMSHNKIRF, the abundance fitness was -0.175 ± 0.067. For NMECRVRGDKASGFHYGVHACEGCKGFFRRTIRMKLEYEKCERSCKIQKKNRNKCQYCRFQKCLALGMSHNAIRF, the abundance fitness was -0.793 ± 0.077. For NMECRVSGDKASGFHYGVHACEGCKGFFRRTIRMKLEYEKCERSCKIQKKNRNKCQYCRFQKCLALGMSHNAIRF the value was -0.575 ± 0.067; for NMECRVIGDKASGFHYGVHACEGCKGFFRRTIRMKLEYEKCERSCKIQKKNRNKCQYCRFQKCLALGMSHNAIRF, -0.877 ± 0.22; for NMECRVCGDKASGFHYGVKACEGCKGFFRRTIRMKLEYEKCERSCKIQKKNRNKCQYCRFQKCLALGMSHNAIRF, -0.047 ± 0.056.

Consider NMECRVCGDKASGFHYGVHACEGCKGFFRRTIRMKLEMEKCERSCKIQKKNRNKCQYCRFQKCLALGMSHNAIRF, for which the abundance fitness is -0.631 ± 0.12.

NMECRVCGDKASGFHYGVHACFGCKGFFRRTIRMKLEYEKCERSCKIQKKNRNKCQYCRFQKCLALGMSHNAIRF: the abundance fitness was -0.343 ± 0.091. Turning to NMECRVCGDKASGFHYGVHACEGCKGFFRRTIRMKLEYEKCERSCKIQKKNRNKCQYCRFQKCLALGMSHNAIQF, the abundance fitness amounted to 0.284 ± 0.06. For NMECRVCGDKASGFHYGVHACEGCKGFFRRTIRMKLEYEKCERSCKIQKKCRNKCQYCRFQKCLALGMSHNAIRF the value was -0.451 ± 0.12.
